Laboratory results from article PMC4381051.
Like-named read-outs stand apart in the source and are kept apart here.

What was measured:
Mst77F WT [1] = biological target: T1, Mst77F WT (UniProt P16909 1-215); assay: FP
T1 sequence: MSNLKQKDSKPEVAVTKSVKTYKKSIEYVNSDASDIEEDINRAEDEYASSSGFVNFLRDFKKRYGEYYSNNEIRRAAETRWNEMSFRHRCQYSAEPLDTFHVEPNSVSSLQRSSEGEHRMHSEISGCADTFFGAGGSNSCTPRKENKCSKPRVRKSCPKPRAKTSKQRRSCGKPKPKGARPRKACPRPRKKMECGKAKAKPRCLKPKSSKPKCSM

Mst77F WT [2] = biological target: T1, Mst77F WT; assay: FP; remark: listed apart in the source
Mst77F CTD* = biological target: T2, Mst77F CTD* (UniProt P16909, CTD sequence randomized); assay: FP
T2 sequence: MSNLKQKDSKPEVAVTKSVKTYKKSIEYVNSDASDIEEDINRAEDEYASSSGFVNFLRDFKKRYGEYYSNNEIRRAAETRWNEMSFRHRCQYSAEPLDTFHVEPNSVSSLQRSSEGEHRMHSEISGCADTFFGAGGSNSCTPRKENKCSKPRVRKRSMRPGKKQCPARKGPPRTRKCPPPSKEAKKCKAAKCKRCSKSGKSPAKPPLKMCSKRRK

Mst77F Δ110C [3] = biological target: T3, Mst77F Δ110C (UniProt P16909 1-105); assay: FP
T3 sequence: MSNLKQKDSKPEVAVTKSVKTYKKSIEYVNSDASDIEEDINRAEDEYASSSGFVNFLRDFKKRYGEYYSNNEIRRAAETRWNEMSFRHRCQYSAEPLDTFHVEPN

Mst77F Δ110C [4] = biological target: T3, Mst77F Δ110C; assay: pull-down
[5] = biological target: T4, Mst77F Δ110C;Mst77F Δ100N (Drosophila melanogaster?;Drosophila …, UniProt P16909;P16909 1-105;101-215, |); assay: pull-down
T4 sequence 1: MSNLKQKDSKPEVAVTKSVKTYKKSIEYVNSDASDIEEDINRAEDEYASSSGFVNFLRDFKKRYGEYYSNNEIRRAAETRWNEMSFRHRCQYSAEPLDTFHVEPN
T4 sequence 2: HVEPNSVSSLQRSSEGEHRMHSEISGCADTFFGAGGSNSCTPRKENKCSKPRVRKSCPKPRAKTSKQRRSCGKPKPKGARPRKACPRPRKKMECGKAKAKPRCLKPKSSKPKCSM

B1: poly-GC 12 bp DNA (dsDNA)
DNA 1: GCGCGCGCGCGC
DNA 2: GCGCGCGCGCGC
Work on B1 yielded a Kd (Mst77F WT [1]) of 170 ± 60 nM.

B2: random 12 bp DNA (dsDNA)
DNA 1: GTACCACGGTAG
DNA 2: CTACCGTGGTAC
With B2 the Kd (Mst77F WT [2]) was 110 ± 50 nM, the Kd (Mst77F CTD*) was 60 ± 10 nM and the binding result (Mst77F Δ110C [3]) was “no binding”.

B3: random 12 bp DNA, biotinylated (dsDNA)
DNA 1: GTACCACGGTAG
DNA 2: CTACCGTGGTAC
B3: no binding (Mst77F Δ110C [4]); binds [5].

B4: poly-AT 12 bp DNA (dsDNA)
DNA 1: ATATATATATAT
DNA 2: ATATATATATAT
B4 was tested, and the Kd (Mst77F WT [1]) was 70 ± 30 nM.
